Legend:
[1] = biological target: OT-I TCR; experiment: cell-based or functional assay
[2] = biological target: OT-I TCR; experiment: cell-based or functional assay; remark: listed apart in the source

| IFN-gamma positive bait CAR T cells in the presence of OT-I target cells [2] | IL-2 positive bait CAR T cells in the presence of OT-I cells [2] | activation of bait CAR T cells (expression of CD107a) in the presence of OT-I T cells [2] | degranulation of OT-I T cells (CD107a-positive) in co-culture with bait CAR T cells [2] | Molecule | proportion of surviving OT-I cells after 18 hours of co-culture [1] | proportion of surviving OT-I cells after 36 hours of co-culture [1] | proportion of surviving OT-I cells after 60 hours of co-culture [1] | OT-I cells remaining in the population after 48 hours of co-culture (competitive survival assay) [2] |
| --- | --- | --- | --- | --- | --- | --- | --- | --- |
| – | – | – | – | OVA-MHCI Bait-CD3Zeta Fully Live CAR (peptide-MHC) | 32.1% | 19.5% | 0.69% | – |
| 11.4% | 14.9% | 24.8% | 80.4% | OVA-MHCI Bait-SIINFEKL CAR (peptide-MHC) SIINFEKLGGGGSGGGGSGGGGSIQKTPQIQVYSRHPPENGKPNILNCYVTQFHPPHIEIQMLENGKKIPKVEMSDMSFSKDWSFYILAHTEFTPTETDTYACRVKHASMAEPKTVYWDRDMGGGGSGGGGSGGGGSGGGGSGPHSLRYFVTAVSRPGLGEPRYMEVGYVDDTEFVRFDSDAENPRYEPRARWMEQEGPEYWERETQKAKGNEQSFRVDLRTLLGYYNQSKGGSHTIQVISGCEVGSDGRLLRGYQQYAYDGCDYIALNEDLKTWTAADMAALITKHKWEQAGEAERLRAYLEGTCVEWLRRYLKNGNATLLRTDSPKAHVTHHSRPEDKVTLRCWALGFYPADITLTWQLNGEELIQDMELVETRPAGDGTFQKWASVVVPLGKEQYYTCHVYHQGLPEPLTLRWEIEFMYPPPYLDNERSNGTIIHIKEKHLCHTQSSPKLFWALVVVAGVLFCYGLLVTVALCVIWTNSRRNRGGQSDYMNMTPRRPGLTRKPYQPYAPARDFAAYRPRAKFSRSAETAANLQDPNQLFNELNLGRREEFDVLEKKRARDPEMGGKQQRRRNPQEGVYNALQKDKMAEAYSEIGTKGERRRGKGHDGLFQGLSTATKDTFDALHMQTLAPR | – | – | – | 5.01% |

From US20250304913A1
